Test results: the supplement of paper PMC7877785
± gives the uncertainty stated by the source.

Assay: self-splicing fitness, log relative to wild type (ln ratio); higher = more splicing; Tetrahymena group I intron in knt gene, E. coli kanamycin selection, DiMSum; sequences stand for … in CUCUCU…GGAGGGAAAAGUUAUCAGGCAUGCACCUGGUAGCUAGUCUUUAAACCAAUAGAUUGCAUCGGUUUAAAAGGCAAGACCGUCAAAUUGCGGGAAAGGGGUCAACAGCCGUUCAGUACCAAGUCUCAGGGGAAACUUUGAGAUGGCCUUGCAAAGGGUAUGGUAAUAAGCUGACGGACAUGGUCCUAACCACGCAGCCAAGUCCUAAGUCAACAGAUCUUCUGUUGAUAUGGAUGCAGUUCACAGACUAAAUGUCGGUCGGGGAAGAUGUAUUCUUCUCAUAAGAUAUAGUCGGACCUCUCCUUAAUGGGAGCUAGCGGAUGAAGUGAUGCAACACUGGAGCCGCUGGGAACUAAUUUGUAUGCGAAAGUAUAUUGAUUAGUUUUGGAGUACUCGUGGUCG
How it was run: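 Fitness was computed with DiMSum as the error-weighted combination of replicate fold changes, kanamycin versus none, each normalised to wild type. The library randomised all eight intron nucleotides of the P1ex region, with the intron placed in the knt kanamycin-resistance gene on pET-22b(+) in E. coli BL21(DE3). Six replicate transformations were grown overnight at 37°C or 30°C on LB agar with or without 25 μg/mL kanamycin, plus 100 μg/mL carbenicillin, 50 μM IPTG and 0.2% rhamnose. Pooled colonies were amplicon-sequenced on an Illumina HiSeq 2500.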

Sequence | self-splicing fitness (ln) (30 °C) | self-splicing fitness (ln) (37 °C)
CGAAAGCAAUAUUACGAGCU | -2.9 ± 0.12 | -1.59 ± 0.13
CGAAAGCAAUAUUACGAGUC | -2.98 ± 0.18 | -2.22 ± 0.35
CGAAAGCAAUAUUACGAGUG | -0.203 ± 0.049 | 0.0139 ± 0.065
CGAAAGCAAUAUUACGAUCA | -0.312 ± 0.1 | 0.699 ± 0.13
CGAAAGCAAUAUUACGAUUA | -1.48 ± 0.11 | -1.06 ± 0.13
CGAAAGCAAUAUUACGCCAC | -2.32 ± 0.37 | –
CGAAAGCAAUAUUACGCCAU | -3.31 ± 0.45 | -2.78 ± 0.43
CGAAAGCAAUAUUACGCCCA | -0.283 ± 0.12 | 0.0973 ± 0.15
CGAAAGCAAUAUUACGCCCU | -0.989 ± 0.15 | 0.0487 ± 0.19
CGAAAGCAAUAUUACGCUGU | -3.2 ± 0.25 | -2.75 ± 0.33
CGAAAGCAAUAUUACGCUUA | -2.25 ± 0.16 | -1.24 ± 0.14
CGAAAGCAAUAUUACGGACA | -0.806 ± 0.074 | 0.186 ± 0.091
CGAAAGCAAUAUUACGGAGA | -2.59 ± 0.29 | -1.58 ± 0.37
CGAAAGCAAUAUUACGGCUC | -2.88 ± 0.18 | -1.73 ± 0.21
CGAAAGCAAUAUUACGGGCC | -3.07 ± 0.23 | -3.07 ± 0.21
CGAAAGCAAUAUUACGGUUC | -3.34 ± 0.16 | -2.33 ± 0.17
CGAAAGCAAUAUUACGGUUU | -2.51 ± 0.095 | -1.51 ± 0.11
CGAAAGCAAUAUUACGUGAC | -3.45 ± 0.12 | -2.22 ± 0.13
CGAAAGCAAUAUUACGUGGC | -0.949 ± 0.12 | -3.21 ± 0.32
CGACAGCAAUAUUACGAAGC | -2.91 ± 0.24 | -3.43 ± 0.35
CGACAGCAAUAUUACGACAG | -0.3 ± 0.069 | 0.0609 ± 0.084
CGACAGCAAUAUUACGAGAC | -4.34 ± 0.3 | -2.57 ± 0.26
CGACAGCAAUAUUACGAGAG | -3.42 ± 0.12 | -1.95 ± 0.11
CGACAGCAAUAUUACGAUCA | -0.455 ± 0.07 | 0.458 ± 0.096

Sequence | self-splicing fitness (ln) (30 °C) | self-splicing fitness (ln) (37 °C)
CGACAGCAAUAUUACGCGGA | -2.18 ± 0.12 | -1.9 ± 0.089
CGACAGCAAUAUUACGCGGC | -3.55 ± 0.16 | -2.96 ± 0.26
CGACAGCAAUAUUACGCUGC | -3.02 ± 0.25 | -2.24 ± 0.26
CGACAGCAAUAUUACGGGUA | -4.49 ± 0.28 | -1.49 ± 0.12
CGACAGCAAUAUUACGGGUG | -0.537 ± 0.043 | 0.0253 ± 0.063
CGACAGCAAUAUUACGGUAC | -4.52 ± 0.36 | -2.09 ± 0.2
CGACAGCAAUAUUACGUGUG | -2.2 ± 0.067 | -1.1 ± 0.07
CGAGAGCAAUAUUACGAAAU | -2.81 ± 0.24 | -2.97 ± 0.37
CGAGAGCAAUAUUACGAGGC | -1.83 ± 0.24 | -0.565 ± 0.48
CGAGAGCAAUAUUACGAGUU | -3.56 ± 0.34 | -2.18 ± 0.34
CGAGAGCAAUAUUACGGAAU | -3.06 ± 0.19 | -3.23 ± 0.42
CGAGAGCAAUAUUACGGCAC | -3.72 ± 0.3 | -2.36 ± 0.23
CGAGAGCAAUAUUACGGGAC | -3.92 ± 0.18 | -1.87 ± 0.16
CGAGAGCAAUAUUACGGGCA | -3.47 ± 0.28 | -2.53 ± 0.44
CGAGAGCAAUAUUACGGGUA | -2.27 ± 0.31 | -2.23 ± 0.27
CGAGAGCAAUAUUACGGUAG | -1.73 ± 0.23 | -1.65 ± 0.33
CGAGAGCAAUAUUACGGUGA | -3.9 ± 0.22 | -2.44 ± 0.2
CGAGAGCAAUAUUACGUCUU | -3.66 ± 0.43 | -1.39 ± 0.22
CGAGAGCAAUAUUACGUGAG | -1.51 ± 0.18 | -1.75 ± 0.48
CGAGAGCAAUAUUACGUGUC | -3.05 ± 0.14 | -2.17 ± 0.16
CGAUAGCAAUAUUACGAGAU | -4.01 ± 0.39 | -2.73 ± 0.25
CGAUAGCAAUAUUACGAUAU | -3.53 ± 0.16 | -1.47 ± 0.12
CGAUAGCAAUAUUACGCACG | -2.6 ± 0.36 | -1.91 ± 0.37
CGAUAGCAAUAUUACGCAUG | -1.79 ± 0.07 | -0.761 ± 0.069
